Assay results: the supplement of paper PMC7877785
± gives the uncertainty stated by the source.

Assay: self-splicing fitness, log relative to wild type (ln ratio); higher = more splicing; Tetrahymena group I intron in knt gene, E. coli kanamycin selection, DiMSum; sequences stand for … in CUCUCU…GGAGGGAAAAGUUAUCAGGCAUGCACCUGGUAGCUAGUCUUUAAACCAAUAGAUUGCAUCGGUUUAAAAGGCAAGACCGUCAAAUUGCGGGAAAGGGGUCAACAGCCGUUCAGUACCAAGUCUCAGGGGAAACUUUGAGAUGGCCUUGCAAAGGGUAUGGUAAUAAGCUGACGGACAUGGUCCUAACCACGCAGCCAAGUCCUAAGUCAACAGAUCUUCUGUUGAUAUGGAUGCAGUUCACAGACUAAAUGUCGGUCGGGGAAGAUGUAUUCUUCUCAUAAGAUAUAGUCGGACCUCUCCUUAAUGGGAGCUAGCGGAUGAAGUGAUGCAACACUGGAGCCGCUGGGAACUAAUUUGUAUGCGAAAGUAUAUUGAUUAGUUUUGGAGUACUCGUGGUCG
How it was run: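 Library with all eight P1ex-region intron nucleotides randomised, intron inside the knt kanamycin-resistance gene on pET-22b(+), in E. coli BL21(DE3). Cells grew overnight at 37°C or 30°C on LB agar with or without 25 μg/mL kanamycin (plus 100 μg/mL carbenicillin, 50 μM IPTG, 0.2% rhamnose), in six replicate transformations. Pooled colonies were amplicon-sequenced on Illumina HiSeq 2500. DiMSum fitness is the error-weighted combination of wild-type-normalised replicate fold changes, kanamycin versus none.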

Sequence	self-splicing fitness (ln) (30 °C)	self-splicing fitness (ln) (37 °C)
UUGCAGCAAUAUUACGUCAA	-1.48 ± 0.1	-0.523 ± 0.11
CCAGAGCAAUAUUACGAGGU	-3.71 ± 0.24	-2.77 ± 0.29
GAACAGCAAUAUUACGGCUC	-0.329 ± 0.1	-0.256 ± 0.1
AUGAAGCAAUAUUACGGCCA	0.439 ± 0.11	0.466 ± 0.18
AUGUAGCAAUAUUACGGGGC	-4.82 ± 0.34	-2.87 ± 0.19
UUCGAGCAAUAUUACGUGAA	-1.55 ± 0.27	1.01 ± 0.28
GAGUAGCAAUAUUACGAUAG	-3.53 ± 0.26	-2.61 ± 0.28
CGGUAGCAAUAUUACGAACA	-0.899 ± 0.16	-0.395 ± 0.2
UAAUAGCAAUAUUACGUCUA	-0.149 ± 0.084	0.263 ± 0.087
AUUCAGCAAUAUUACGCACU	-0.181 ± 0.062	0.535 ± 0.086
AUGGAGCAAUAUUACGCAUU	-3.12 ± 0.22	-1.84 ± 0.22
UCAAAGCAAUAUUACGUCGU	-2.23 ± 0.11	-1.28 ± 0.11
CUCUAGCAAUAUUACGGUCC	-2.84 ± 0.33	-2.53 ± 0.36
AUCCAGCAAUAUUACGCAGA	-1.38 ± 0.11	-0.448 ± 0.099
GCAAAGCAAUAUUACGUAAA	-0.824 ± 0.062	-0.5 ± 0.085
UGCGAGCAAUAUUACGCGGA	-2.41 ± 0.28	-2.09 ± 0.31
UACUAGCAAUAUUACGACAA	-0.443 ± 0.12	-0.256 ± 0.11
CCAAAGCAAUAUUACGUGGG	-2.85 ± 0.12	-2.9 ± 0.17
CCGUAGCAAUAUUACGGAUA		-2.16 ± 0.28

Sequence	self-splicing fitness (ln) (30 °C)	self-splicing fitness (ln) (37 °C)
CCGCAGCAAUAUUACGCCGC	-4.21 ± 0.29	-2.93 ± 0.48
CCCAAGCAAUAUUACGGCUG	-4.22 ± 0.23	-2.69 ± 0.16
CAGUAGCAAUAUUACGCCGA	-3.13 ± 0.35	-0.00684 ± 0.18
AUGAAGCAAUAUUACGACGU	0.206 ± 0.076	0.735 ± 0.088
GCAGAGCAAUAUUACGGCCG	-3.3 ± 0.24	-2.02 ± 0.27
UCUCAGCAAUAUUACGCUAU	-3.62 ± 0.43	-2.37 ± 0.23
UUUCAGCAAUAUUACGUGUA	-2.47 ± 0.12	-1.57 ± 0.1
GGUGAGCAAUAUUACGGAUG	-3.73 ± 0.22	-2.62 ± 0.22
GUGGAGCAAUAUUACGUGCG	-2.23 ± 0.15	-2.9 ± 0.29
UGCAAGCAAUAUUACGCAUA	-2.59 ± 0.2	-2.33 ± 0.2
CGUCAGCAAUAUUACGGCCG	-0.623 ± 0.12	0.482 ± 0.15
GCACAGCAAUAUUACGGGGU	-2.83 ± 0.13	-1.35 ± 0.11
GGUCAGCAAUAUUACGGUGU	-1.44 ± 0.15	0.00529 ± 0.14
UAUAAGCAAUAUUACGAUAU	-2.9 ± 0.21	-1.96 ± 0.2
UCGCAGCAAUAUUACGAGCG	-1.97 ± 0.12	-0.806 ± 0.13
ACUAAGCAAUAUUACGUUGC	-3.69 ± 0.27	-2.77 ± 0.22
UGGGAGCAAUAUUACGAGGG		-1.99 ± 0.42
AUGCAGCAAUAUUACGCCUC	-2.55 ± 0.2	-1.35 ± 0.14
CCUGAGCAAUAUUACGCAAC	-2.76 ± 0.33	-1.78 ± 0.27
